From patent publication US20230382979A1 (ADAPTIVE BIOTECHNOLOGIES, published 2023)

Experiments:
[1] = biological target: SARS-CoV (2003) spike protein borne on lentiviral pseudovirus (SARS-CoV (2003), UniProt P59594 14-1255); assay: cell-based or functional assay
[2] = biological target: S1 subunit of the SARS-CoV-2 spike protein, WA01/2020 strain (SARS-CoV-2, WA01/2020 strain, UniProt P0DTC2 16-685); assay: ELISA screening, antibody concentration not given
[3] = biological target: T1, SARS-CoV-2 nucleocapsid (N) protein (SARS-CoV-2, UniProt P0DTC9 1-419); assay: ELISA screening, antibody concentration not given
[4] = biological target: T2, S2 subunit of the SARS-CoV-2 spike protein, WA01/2020 strain (SARS-CoV-2, WA01/2020 strain, UniProt P0DTC2 686-1213); assay: dose-response ELISA; antigen taken from the column 'Structural data'
[5] = biological target: SARS-CoV-2 spike protein, WA1/2020, borne on lentiviral pseudovirus (SARS-CoV-2, WA01/2020 strain, UniProt P0DTC2 14-1273); assay: cell-based or functional assay
[6] = biological target: T2, S2 subunit of the SARS-CoV-2 spike …; assay: ELISA, antibody at 0.1 ug/mL
[7] = biological target: T1, SARS-CoV-2 nucleocapsid (N) protein; assay: ELISA, antibody at 0.1 ug/mL

B1: antibody 1856 (antibody, V domains shown)
VH: EVRLVESGGGLVKPGGSLRLSCAASGFSFSLYTMNWVRQAPGKGLEWVSYISSSSSYRYYADSVKGRFSVSRDNAKNTLYLEMNGLRAEDTAVYYCARDGYCPRGVCTYYGMDVWGQGTTVTVSA
VL: EIVMTQSPATLSVSPGERATLSCRASQTIGIRLAWYQQKPGQAPRLLIYDATIRATGIPARFSGSGSGTDFTLTISGLQSEDFAVYYCQRYNNWPPVYTFGQGTKLEMK
Pseudo Neut, SARS-CoV 2003 IC50 [1]: > 111 nM | binding result [2]: no binding (tested: not printed) | binding result [3]: no binding (tested: not printed)

B2: antibody 1867 (antibody, V domains shown)
VH: EVQLVESGGGLVKPGGSLRLSCAASGFSFSTYTMNWVRQAPGKGLEWVSYISSSSSYRYYADSVRGRFSVSRDNAKNSLYLQMNGLRVEDTAVYYCARDGYCPNGVCTYYGMDVWGQGTTVTVSS
VL: not shown
Pseudo Neut, SARS-CoV 2003 IC50 [1]: 135 nM | binding result [2]: no binding (tested: not printed) | binding result [3]: no binding (tested: not printed) | EC50 [4]: 1.09 nM

B3: antibody 1888 (antibody, V domains shown)
VH: EVQLVESGGGLVKPGGSLRLSCAASGFTFSSYSMNWVRQAPGKGLEWVSYISSSSSYKYYADSVKGRFSVSRDNAKNSLYLQLNGLRVEDTAVYYCARDGYCPKGVCTYYGMDVWGQGTTVTVSA
VL: EIVMTQSPATLSVSPGERATLSCRASQSVRSRLAWFQQKPGQPPRLLIYDASIRATGIPDRFSGSGSGTEFTLIISGLQSEDFAVYYCQQYDNWPPAYTFGQGTKLEIK
Pseudo Neut, WA1/2020 IC50 (pM) [5]: > 111 pM | Pseudo Neut, SARS-CoV 2003 IC50 [1]: > 111 nM | binding result [2]: no binding (tested: not printed) | binding result [3]: no binding (tested: not printed)

B4: antibody 1963 (antibody, V domains shown)
VH: QVQLVQSGAEVKKPGASVKVSCKASGYTFTSNYIHWLRQAPGQGLEWMGIIKPSGTSTISAQKFRGRVAMTRDTSTSTVYMELSSLRFEDTAIYYCARDAKRALETWGQGTMVTVSS
VL: QSVLTQPPSVSAAPGQKVTISCSGSSSNIGNNYVSWYQQLPGTAPKLLIYDNNKRPSGIPDRFSGSRSGTSATLGITGLQTGDEADYYCGTWDSSLSAWVFGGGTKLTVL
Pseudo Neut, SARS-CoV 2003 IC50 [1]: 69 nM | binding result [2]: no binding (tested: not printed) | binding result [3]: no binding (tested: not printed) | EC50 [4]: 0.041 nM

B5: antibody 2794 (antibody, V domains shown)
VH: QVQLVQSGAEVKKPGSSLKVSCKASGGTFNNFAISWVRQAPGQGPEWMGRINPILSAAKYAQKFQGRLTITADKSTTTAYMELSSLRSEDTAVYYCAPTGTGESWWFDPWGQGTLVTVSS
VL: QSVLTQPPSASGTPGQRVTISCSGSSSNIGTNYVYWYQQLPGTAPKVLIYGNNQRPSGVPDRFSGSKSGSSASLAISGLRSEDEADYYCAAWDDSLSGPVFGGGTKLTVL
Pseudo Neut, WA1/2020 IC50 (pM) [5]: 232 pM | binding result [6]: no binding (tested: 0.1 ug/mL) | binding result [7]: no binding (tested: 0.1 ug/mL)

B6: antibody 4042 (antibody, V domains shown)
VH: QITLKESGPTLVKPTQTLTLTCTFSGFSLSSGGVGVGWIRQPPGKALEWLALIYWDDDKRYRPSLKSRLTITRDTSTNQVVLTMTNMDPVDTATYFCARHQIATVFDHWGQGTLVTVSS
VL: QSALTQPASVSGSPGQSITISCTGTSSDVGGYNYVSWYQQHPGKAPKLMIYEVSNRPSGVSSRFSGSKSGNTASLTISGLQAEDEADYYCSSYTRSSPLVAFGGGTKVTVL
Pseudo Neut, WA1/2020 IC50 (pM) [5]: 209 pM | binding result [6]: no binding (tested: 0.1 ug/mL) | binding result [7]: no binding (tested: 0.1 ug/mL)

B7: antibody 3091 (antibody, V domains shown)
VH: QMQLVQSGPEVKKPGTSVKVSCKASGFTFSSSAVQWVRQARGQGLEWIGWIVVGSGNANYAQKLQERVSITRDMSTSTAYMELSSLRPEDTAVYYCAAPHCSRTICHDGFDMWGQGTMVTVSS
VL: EIVLTQSPGTLSLSPGERATLSCRASQSVRSSYLAWYQQKPGQAPRLLMFVASSRATGIPDRFSGSGSGTDFTLTISRLEPEDFAVYYCQQYDTSPWTFGQGTKVEIK
Pseudo Neut, WA1/2020 IC50 (pM) [5]: 59 pM | binding result [6]: no binding (tested: 0.1 ug/mL) | binding result [7]: no binding (tested: 0.1 ug/mL)

B8: antibody 1969 (antibody, V domains shown)
VH: QVQLVQSGAEVKKPGASVKVSCKASGYSFTDYYIHWVRQAPGQGLEWMGIIKPSAGATVYAQKFRGRVSMTSDTSTGTVYMELSGLKSEDTAVYYCARDYNRSFDFWGQGTLVTVSS
VL: QSVLTQPPSVSAAPGQTVTISCAGSTSNIGKNYVSWYQHLPGTAPKLLIYDNIKRPSGIPDRFSGSTSGTSATLGITELQTGDEADYYCGTWDSSLSAYVFGTGTKVTVL
Pseudo Neut, SARS-CoV 2003 IC50 [1]: 97 nM | binding result [2]: no binding (tested: not printed) | binding result [3]: no binding (tested: not printed) | EC50 [4]: 0.035 nM

B9: antibody 2564 (antibody, V domains shown)
VH: QVQLVQSGAEVKKPGSSVRVSCKASGGTFISYTFNWVRQAPGQGLEWMGRIIPIFGIVNYAQKFQGRVTIAADKSTSTAYMELSSLRSEDTAMYYCATATVDYDSGEEQSSFDPWGQGTLVTVSS
VL: EIVLTQSPGTLSLSPGERATLSCRASQSVSSSYLAWYQQKAGQTPRLLIYAASSRATGVPDRFSGSGSGTDFTLTISRLEAEDFAVYYCQQSWTFGQGTKVEIK
Pseudo Neut, WA1/2020 IC50 (pM) [5]: 160 pM | binding result [6]: no binding (tested: 0.1 ug/mL) | binding result [7]: no binding (tested: 0.1 ug/mL)

B10: antibody 2050 (antibody, V domains shown)
VH: QVQLVQSGAEVKKPGASVKVPCKVSGYTFTDHFIHWVRQAPGQGLEWMGWISPNSGGRNYTQKFQGRVTLTRDTAITTVHMDLSSLTPDDTAVYYCARDVRWAQLQGGFDLWGQGTMVTVSS
VL: QSALTQPASVSGSPGQSITISCTGTSSDVGSYNLVSWYQQHPGKAPKLMIYEVSKRPSGVSNRFSGSKSGNTASLTISGLQADDEADYYCCSYAGDNNFLFGGGTSLTVL
Pseudo Neut, WA1/2020 IC50 (pM) [5]: 427 pM | binding result [6]: no binding (tested: 0.1 ug/mL) | binding result [7]: no binding (tested: 0.1 ug/mL)

B11: antibody 3995 (antibody, V domains shown)
VH: EVQLVQSGAEVKKPGSSVKVSCKASGGTFSMHTIRWVRQAPGQGLEWMGRIIPMLGIVNYAQKFQGRVTISADKSTSTAYMELSSLTSEDTAMYYCAKGSHDVFDIWGQGTMVTVSS
VL: not shown
Pseudo Neut, WA1/2020 IC50 (pM) [5]: 3120 pM | binding result [6]: no binding (tested: 0.1 ug/mL) | binding result [7]: no binding (tested: 0.1 ug/mL)

B12: antibody 2075 (antibody, V domains shown)
VH: QVQLVQSGAEVKKPGSSVKVSCTASGGTFSIYAFSWVRQAPGQGLEWMGGIIPISGTAGYAQKFQGRVTITADESTSTAYMELSSLRSEDTAIYYCARKYRYCSGSRCYTYFDYWGQGTLVTVSS
VL: DIQMTQSPSSLSASVGDRVTITCRASQSISSFLNWYQQKPGKAPKLLIYAASSLQSGVPSRFSGSGSGTDFTLTISSLQPEDSATYYCQQSYSTITFGQGTRLEIK
Pseudo Neut, WA1/2020 IC50 (pM) [5]: 783 pM | binding result [6]: no binding (tested: 0.1 ug/mL) | binding result [7]: no binding (tested: 0.1 ug/mL)

B13: antibody 941 (antibody, V domains shown)
VH: QVQLVQSGAEVKKPGSSVKVSCKASGGTFSNSAINWVRQAPGQGLEWMGGIIPLFGAADYAQKFQARVTITADKSTTTSYMELSSLRSEDTAVYYCARDTLEHDDVWGNFRLSLPLSFWGQGTLVTVSS
VL: not shown
Pseudo Neut, WA1/2020 IC50 (pM) [5]: 610 pM | binding result [6]: no binding (tested: 0.1 ug/mL) | binding result [7]: no binding (tested: 0.1 ug/mL)
